Data reported in IntAct's records for PubMed 31515488.

B1: E3 ubiquitin-protein ligase LNX (Homo sapiens), Q8TBB1 (parent)
chain: MNQPESANDPEPLCAVCGQAHSLEENHFYSYPEEVDDDLICHICLQALLDPLDTPCGHTYCTLCLTNFLVEKDFCPMDRKPLVLQHCKKSSILVNKLLNKLLVTCPFREHCTQVLQRCDLEHHFQTSCKGASHYGLTKDRKRRSQDGCPDGCASLTATAPSPEVSAAATISLMTDEPGLDNPAYVSSAEDGQPAISPVDSGRSNRTRARPFERSTIRSRSFKKINRALSVLRRTKSGSAVANHADQGRENSENTTAPEVFPRLYHLIPDGEITSIKINRVDPSESLSIRLVGGSETPLVHIIIQHIYRDGVIARDGRLLPGDIILKVNGMDISNVPHNYAVRLLRQPCQVLWLTVMREQKFRSRNNGQAPDAYRPRDDSFHVILNKSSPEEQLGIKLVRKVDEPGVFIFNVLDGGVAYRHGQLEENDRVLAINGHDLRYGSPESAAHLIQASERRVHLVVSRQVRQRSPDIFQEAGWNSNGSWSPGPGERSNTPKPLHPTITCHEKVVNIQKDPGESLGMTVAGGASHREWDLPIYVISVEPGGVISRDGRIKTGDILLNVDGVELTEVSRSEAVALLKRTSSSIVLKALEVKEYEPQEDCSSPAALDSNHNMAPPSDWSPSWVMWLELPRCLYNCKDIVLRRNTAGSLGFCIVGGYEEYNGNKPFFIKSIVEGTPAYNDGRIRCGDILLAVNGRSTSGMIHACLARLLKELKGRITLTIVSWPGTFL
partner: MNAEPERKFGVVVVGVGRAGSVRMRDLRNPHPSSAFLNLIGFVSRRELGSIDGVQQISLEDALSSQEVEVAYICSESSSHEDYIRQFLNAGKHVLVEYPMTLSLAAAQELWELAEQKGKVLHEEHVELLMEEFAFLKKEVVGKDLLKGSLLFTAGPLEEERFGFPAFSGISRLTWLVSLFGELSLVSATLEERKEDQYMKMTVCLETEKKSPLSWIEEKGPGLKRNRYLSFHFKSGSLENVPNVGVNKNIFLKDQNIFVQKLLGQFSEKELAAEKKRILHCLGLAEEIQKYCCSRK
B2: LHFPL tetraspan subfamily member 5 protein (Homo sapiens), Q8TAF8 (parent)
chain: MVKLLPAQEAAKIYHTNYVRNSRAVGVMWGTLTICFSVLVMALFIQPYWIGDSVNTPQAGYFGLFSYCVGNVLSSELICKGGPLDFSSIPSRAFKTAMFFVALGMFLIIGSIICFSLFFICNTATVYKICAWMQLAAATGLMIGCLVYPDGWDSSEVRRMCGEQTGKYTLGHCTIRWAFMLAILSIGDALILSFLAFVLGYRQDKLLPDDYKADGTEEV
B3: Docking protein 2 (Homo sapiens), O60496 (parent)
chain: MGDGAVKQGFLYLQQQQTFGKKWRRFGASLYGGSDCALARLELQEGPEKPRRCEAARKVIRLSDCLRVAEAGGEASSPRDTSAFFLETKERLYLLAAPAAERGDWVQAICLLAFPGQRKELSGPEGKQSRPCMEENELYSSAVTVGPHKEFAVTMRPTEASERCHLRGSYTLRAGESALELWGGPEPGTQLYDWPYRFLRRFGRDKVTFSFEAGRRCVSGEGNFEFETRQGNEIFLALEEAISAQKNAAPATPQPQPATIPASLPRPDSPYSRPHDSLPPPSPTTPVPAPRPRGQEGEYAVPFDAVARSLGKNFRGILAVPPQLLADPLYDSIEETLPPRPDHIYDEPEGVAALSLYDSPQEPRGEAWRRQATADRDPAGLQHVQPAGQDFSASGWQPGTEYDNVVLKKGPK
partner: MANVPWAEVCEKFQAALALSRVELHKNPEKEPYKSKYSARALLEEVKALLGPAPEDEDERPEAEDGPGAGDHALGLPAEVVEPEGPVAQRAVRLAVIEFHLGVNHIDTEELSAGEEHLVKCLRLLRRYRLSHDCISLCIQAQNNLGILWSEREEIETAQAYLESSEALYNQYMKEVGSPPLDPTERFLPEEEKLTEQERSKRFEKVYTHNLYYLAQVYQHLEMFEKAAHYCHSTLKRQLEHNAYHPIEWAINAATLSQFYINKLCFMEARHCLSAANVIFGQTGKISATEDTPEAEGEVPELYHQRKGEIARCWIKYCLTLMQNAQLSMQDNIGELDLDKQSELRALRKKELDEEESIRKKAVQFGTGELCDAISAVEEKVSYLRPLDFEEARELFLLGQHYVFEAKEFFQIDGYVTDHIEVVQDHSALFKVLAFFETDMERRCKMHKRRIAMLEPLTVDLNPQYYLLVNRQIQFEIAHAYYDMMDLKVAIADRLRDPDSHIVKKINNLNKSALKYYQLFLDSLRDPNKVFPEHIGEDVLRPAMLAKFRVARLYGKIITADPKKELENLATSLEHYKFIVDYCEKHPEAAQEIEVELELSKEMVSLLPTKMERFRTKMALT
B4: Elongin-A2 (Homo sapiens), Q8IYF1 (parent)
chain: MAAGSTTLHAVEKLQVRLATKTEPKKLEKYLQKLSALPMTADILAETGIRKTVKRLRKHQHVGDFARDLAARWKKLVLVDRNTRPGPQDPEESASRQRFGEALQDQEKAWGFPENATAPRSPSHSPEHRRTARRTPPGQQRPHPRSHSREPRAERKCPRIAPADSGRYRASPTRTAPLRMPEGPEPAAPGKQPGRGHTHAAQGGPLLCPGCQGQPQGKAVVSHSKGHKSSRQEKRPLCAQGDWHSPTLIREKSCGACLREETPRMPSWASARDRQPSDFKTDKEGGQAGSGQRVPALEEAPDSHQKRPQHSHSNKKRPSLDGRDPGNGTHGLSPEEKEQLSNDRETQEGKPPTAHLDRTSVSSLSEVEEVDMAEEFEQPTLSCEKYLTYDQLRKQKKKTGKSATTALGDKQRKANESKGTRESWDSAKKLPPVQESQSERLQAAGADSAGPKTVPSHVFSELWDLSEAWMQANYDPLSDSDSMTSQAKPEALSSPKFREEAAFPGRRVNAKMPVYSGSRPACQLQVPTLRQQCAQVLRNNPDALSDVGEVPYWVLEPVLEGWRPDQLYRRKKDNHALVRETDELRRNHCFQDFKEEKPQENKTWREQYLRLPDAPEQRLRVMTTNIRSARGNNPNGREAKMICFKSVAKTPYDTSRRQEKSAGDADPENGEIKPASKPAGSSHTPSSQSSSGGGRDSSSSILRWLPEKRANPCLSSSNEHAAPAAKTRKQAAKKVAPLMAKAIRDYKRRFSRR
partner: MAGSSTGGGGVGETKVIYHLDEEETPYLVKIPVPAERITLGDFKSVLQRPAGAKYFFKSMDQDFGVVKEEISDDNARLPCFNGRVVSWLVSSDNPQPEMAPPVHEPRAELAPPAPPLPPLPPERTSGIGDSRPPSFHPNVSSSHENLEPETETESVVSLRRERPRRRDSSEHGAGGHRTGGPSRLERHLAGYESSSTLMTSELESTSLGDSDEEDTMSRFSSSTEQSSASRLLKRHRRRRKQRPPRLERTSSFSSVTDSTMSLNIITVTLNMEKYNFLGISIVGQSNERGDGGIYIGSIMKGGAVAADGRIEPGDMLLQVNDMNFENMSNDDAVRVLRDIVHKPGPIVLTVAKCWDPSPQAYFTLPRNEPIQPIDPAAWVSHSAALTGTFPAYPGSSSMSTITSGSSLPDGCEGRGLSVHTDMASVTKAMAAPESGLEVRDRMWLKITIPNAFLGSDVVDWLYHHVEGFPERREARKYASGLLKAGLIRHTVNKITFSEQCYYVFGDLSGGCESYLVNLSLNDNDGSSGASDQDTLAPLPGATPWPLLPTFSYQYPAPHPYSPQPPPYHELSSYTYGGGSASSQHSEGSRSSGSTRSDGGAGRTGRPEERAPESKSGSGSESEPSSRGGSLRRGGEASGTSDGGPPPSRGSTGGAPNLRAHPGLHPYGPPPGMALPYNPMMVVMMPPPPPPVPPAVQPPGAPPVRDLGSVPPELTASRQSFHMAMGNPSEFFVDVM
B5: Probable RNA-binding protein 46 (Homo sapiens), Q8TBY0 (parent)
chain: MNEENIDGTNGCSKVRTGIQNEAALLALMEKTGYNMVQENGQRKFGGPPPGWEGPPPPRGCEVFVGKIPRDMYEDELVPVFERAGKIYEFRLMMEFSGENRGYAFVMYTTKEEAQLAIRILNNYEIRPGKFIGVCVSLDNCRLFIGAIPKEKKKEEILDEMKKVTEGVVDVIVYPSATDKTKNRGFAFVEYESHRAAAMARRKLIPGTFQLWGHTIQVDWADPEKEVDEETMQRVKVLYVRNLMISTTEETIKAEFNKFKPGAVERVKKLRDYAFVHFFNREDAVAAMSVMNGKCIDGASIEVTLAKPVNKENTWRQHLNGQISPNSENLIVFANKEESHPKTLGKLPTLPARLNGQHSPSPPEVERCTYPFYPGTKLTPISMYSLKSNHFNSAVMHLDYYCNKNNWAPPEYYLYSTTSQDGKVLLVYKIVIPAIANGSQSYFMPDKLCTTLEDAKELAAQFTLLHLDYNFHRSSINSLSPVSATLSSGTPSVLPYTSRPYSYPGYPLSPTISLANGSHVGQRLCISNQASFF

Variants of: B1
Conditions: with biea_human BLVRA

| Variant | effect of a mutation on the interaction |
| --- | --- |
| R342H | with no effect |

Variants of: B2
Conditions: with BCL2L13, Q9BXK5
Chain of BCL2L13, Q9BXK5 (Q9BXK5 whole entry): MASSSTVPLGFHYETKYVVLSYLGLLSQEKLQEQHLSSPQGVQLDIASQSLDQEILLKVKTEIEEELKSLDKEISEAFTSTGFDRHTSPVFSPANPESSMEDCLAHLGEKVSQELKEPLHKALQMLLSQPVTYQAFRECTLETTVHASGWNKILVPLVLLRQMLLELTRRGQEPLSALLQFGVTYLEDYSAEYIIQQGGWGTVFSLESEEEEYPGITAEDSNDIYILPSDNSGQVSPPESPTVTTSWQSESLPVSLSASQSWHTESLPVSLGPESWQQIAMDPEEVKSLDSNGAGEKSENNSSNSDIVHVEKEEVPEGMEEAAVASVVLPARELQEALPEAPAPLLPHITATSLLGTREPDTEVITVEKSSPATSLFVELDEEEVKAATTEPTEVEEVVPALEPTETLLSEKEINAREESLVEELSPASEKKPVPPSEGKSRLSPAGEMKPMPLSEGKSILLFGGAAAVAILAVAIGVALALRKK

| Variant | effect of a mutation on the interaction |
| --- | --- |
| K205N | with no effect |

Variants of: B3
Conditions: with kbp_human KIFBP

| Variant | effect of a mutation on the interaction |
| --- | --- |
| P274L | disrupting interaction strength |

Variants of: B4
Conditions: with dvl2_human DVL2, O14641

| Variant | effect of a mutation on the interaction |
| --- | --- |
| T6S | with no effect |
| R179P | with no effect |
| C254F | with no effect |
| D302H | with no effect |
| A403S | with no effect |
| A446T | with no effect |
| R498Q | with no effect |
| G505R | with no effect |

Variants of: B5
Conditions: with rbpms_human RBPMS

| Variant | effect of a mutation on the interaction |
| --- | --- |
| I126M | with no effect |
